# Experimental data as given in publication PMC11051826, “Screening and Application of DNA Aptamers for Heparin-Binding Protein”.
# T1: Heparin-binding protein (HBP) (Homo sapiens, UniProt P20160 27-248)
# T1 sequence: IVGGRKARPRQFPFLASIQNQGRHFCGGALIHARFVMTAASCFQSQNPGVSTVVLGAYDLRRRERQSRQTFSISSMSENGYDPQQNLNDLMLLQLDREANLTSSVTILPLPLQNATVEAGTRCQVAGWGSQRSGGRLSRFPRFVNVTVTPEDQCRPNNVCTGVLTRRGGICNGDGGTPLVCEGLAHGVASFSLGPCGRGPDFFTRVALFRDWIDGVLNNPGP
# T2: C-reactive protein (CRP) (UniProt P02741 19-224)
# T2 sequence: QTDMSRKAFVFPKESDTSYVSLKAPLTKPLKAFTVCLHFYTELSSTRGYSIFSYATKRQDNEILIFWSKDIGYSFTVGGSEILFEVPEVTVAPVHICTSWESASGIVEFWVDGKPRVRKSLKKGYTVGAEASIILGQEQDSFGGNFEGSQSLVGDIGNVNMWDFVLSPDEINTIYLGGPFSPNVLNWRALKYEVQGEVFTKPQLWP
# T3: Serum amyloid A1 (SAA1) (UniProt P0DJI8 19-122)
# T3 sequence: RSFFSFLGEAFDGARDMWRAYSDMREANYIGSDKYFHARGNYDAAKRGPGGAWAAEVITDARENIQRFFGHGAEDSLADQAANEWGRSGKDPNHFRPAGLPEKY
# T4: Procalcitonin (PCT) (UniProt P01258 26-141)
# T4 sequence: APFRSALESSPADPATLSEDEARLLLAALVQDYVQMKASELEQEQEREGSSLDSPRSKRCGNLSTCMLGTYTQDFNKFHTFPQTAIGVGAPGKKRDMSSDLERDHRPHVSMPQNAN
# Key:
# [1] = target: T1, Heparin-binding protein (HBP); experiment: SPR; HBP immobilized, PBS, 25 C; SPR: Biacore T200, CM5 with 815 RU HBP, aptamer 0-1 uM in PBS (NaCl 137 mM, KCl 2.67 mM, Na2HPO4 10 mM, KH2PO4 2 mM, pH 7.4; composition given for CD), 25 C; flow: 500 nM aptamer, PBS, room temperature, 60 min; conditions: protein: commercial; label: FAM in flow cytometry
# [2] = target: T1, Heparin-binding protein (HBP); experiment: SPR; SPR: Biacore T200, CM5 with 815 RU HBP, aptamer 0-1 uM in PBS (NaCl 137 mM, KCl 2.67 mM, Na2HPO4 10 mM, KH2PO4 2 mM, pH 7.4; composition given for CD), 25 C; flow: 500 nM aptamer, PBS, room temperature, 60 min; conditions: protein: commercial
# [3] = target: T2, C-reactive protein (CRP); experiment: flow cytometry (magnetic beads); 500 nM aptamer; SPR: Biacore T200, CM5 with 815 RU HBP, aptamer 0-1 uM in PBS (NaCl 137 mM, KCl 2.67 mM, Na2HPO4 10 mM, KH2PO4 2 mM, pH 7.4; composition given for CD), 25 C; flow: 500 nM aptamer, PBS, room temperature, 60 min; conditions: protein: commercial; chain copies: 5; label: FAM in flow cytometry
# [4] = target: T3, Serum amyloid A1 (SAA1); experiment: as above; conditions: protein: commercial; label: FAM in flow cytometry
# [5] = target: Interleukin-6 (IL-6) (UniProt P05231 30-212); experiment: as above; conditions: protein: commercial; label: FAM in flow cytometry
# Interleukin-6 (IL-6), sequence (P05231 30-212): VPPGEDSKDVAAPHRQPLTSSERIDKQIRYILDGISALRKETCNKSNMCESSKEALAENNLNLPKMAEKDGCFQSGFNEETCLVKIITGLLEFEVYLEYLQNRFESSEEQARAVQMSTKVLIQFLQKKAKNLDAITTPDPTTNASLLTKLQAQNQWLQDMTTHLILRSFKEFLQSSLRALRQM
# [6] = target: T4, Procalcitonin (PCT); experiment: as above; conditions: protein: commercial; label: FAM in flow cytometry
binder,measurement,setting,value
Apt-01 (ssDNA) DNA: TTCAGCACTCCACGCATAGCTTCACCTACCGCAATCCGTTGCTCAGTGCTACCGCACCTATGCGTGCTACCGTGAA,Kd,[1],3.42 nM
same,binding signal,[2]; label: FAM in flow cytometry,424 RU
same,binding result,[3],no binding
same,binding result,[4],no binding
same,binding result,[5],no binding
same,binding result,[6],no binding
Apt-02 (ssDNA) DNA: TTCAGCACTCCACGCATAGCTTCACCTACCGCGCAGCTCAGTCGTTGCCCACACGACCTATGCGTGCTACCGTGAA,Kd,[1],1.44 nM
same,binding signal,[2]; label: FAM in flow cytometry,162 RU
same,binding result,[3],no binding
same,binding result,[4],no binding
same,binding result,[5],no binding
same,binding result,[6],no binding
Apt-08 (ssDNA) DNA: TTCAGCACTCCACGCATAGCTCATCGCGAGCGACACGTTACCGTGCTTTACTACCGCCTATGCGTGCTACCGTGAA,binding signal,[2],79 RU
Apt-09 (ssDNA) DNA: TTCAGCACTCCACGCATAGCCTTGCCTACCGATCCTGGATCTCAGCTGTACCACAGCCTATGCGTGCTACCGTGAA,binding signal,[2],87.5 RU
Apt-12 (ssDNA) DNA: TTCAGCACTCCACGCATAGCTTCACCTACTGGCATATGCCTCAGTCCACTCCTGGACCTATGCGTGCTACCGTGAA,binding signal,[2],107 RU
Apt-14 (ssDNA) DNA: TTCAGCACTCCACGCATAGCTTCACCTACCGCCAATCAGCTCAGTGTGTCTCCACACCTATGCGTGCTACCGTGAA,binding signal,[2],50.3 RU
Apt-15 (ssDNA) DNA: TTCAGCACTCCACGCATAGCTTCACCTACTGCCCTAGCTCAGCCGTCTCCATCCGGCCTATGCGTGCTACCGTGAA,binding signal,[2],72.5 RU
Apt-18 (ssDNA) DNA: TTCAGCACTCCACGCATAGCTTTACCTACCGCATCGCTCAGTCAACCATTGGTGGACCTATGCGTGCTACCGTGAA,binding signal,[2],41.2 RU
Apt-20 (ssDNA) DNA: TTCAGCACTCCACGCATAGCTTCACCTACCGCCGAAGGCTCAGTCCGTGCTTCGGACCTATGCGTGCTACCGTGAA,binding signal,[2],99 RU
Apt-13 (ssDNA) DNA: TTCAGCACTCCACGCATAGCTCATCGCCTGCGACATGCTAGCATGCTTTACTACTGCCTATGCGTGCTACCGTGAA,Kd,[1],1.04 nM
same,binding result,[3],no binding
same,binding result,[4],no binding
same,binding result,[5],no binding
same,binding result,[6],no binding
Apt-03 (ssDNA) DNA: TTCAGCACTCCACGCATAGCTTCACCTACGAACGCCAGTGACAGCACCGATCAGTGCCTATGCGTGCTACCGTGAA,binding signal,[2],119 RU
Apt-04 (ssDNA) DNA: TTCAGCACTCCACGCATAGCTTCATCTACCCCGCCAAGGTCAGCCACGTCAGTGTGCCTATGCGTGCTACCGTGAA,binding signal,[2],121 RU
Apt-05 (ssDNA) DNA: TTCAGCACTCCACGCATAGCTTCACCTACACCGCGACCGCGTTCAGCCTCTGCAGGCCTATGCGTGCTACCGTGAA,binding signal,[2],132 RU
Apt-07 (ssDNA) DNA: TTCAGCACTCCACGCATAGCCTTGCCTACCGGACGAAGTACTCAGTCACTCCGTGACCTATGCGTGCTACCGTGAA,binding signal,[2],76.2 RU
